Assay results published in patent US20160237156A1.

Key:
[1] = molecular target: SNAP-tag-CXCR4 (Tag-lite labeled CXCR4 cells, Cisbio Bioassays) (UniProt P61073); experiment: Tag-lite HTRF competition with 50 nM fluorescent SDF-1, Cheng-Prusoff
[2] = molecular target: SNAP-tag-CXCR4 (Tag-lite labeled CXCR4 cells, Cisbio Bioassays) (UniProt P61073); experiment: Tag-lite HTRF competition with 50 nM fluorescent SDF-1 on Tag-lite labeled CXCR4 cells
CXCR4 (human) = CXCR4 (human) (UniProt P61073); experiment: cell-based or functional assay
Chain of CXCR4 (human) (P61073 whole entry): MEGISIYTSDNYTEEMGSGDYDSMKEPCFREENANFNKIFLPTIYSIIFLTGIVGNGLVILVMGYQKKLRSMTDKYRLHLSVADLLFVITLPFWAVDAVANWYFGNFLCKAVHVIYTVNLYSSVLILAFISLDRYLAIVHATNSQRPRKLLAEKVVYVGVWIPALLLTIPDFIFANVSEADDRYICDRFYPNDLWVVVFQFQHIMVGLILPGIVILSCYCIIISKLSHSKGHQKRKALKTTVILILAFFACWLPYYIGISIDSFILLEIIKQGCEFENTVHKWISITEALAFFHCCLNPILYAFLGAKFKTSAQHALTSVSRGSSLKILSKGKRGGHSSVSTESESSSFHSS

Chain of SNAP-tag-CXCR4 (Tag-lite labeled CXCR4 cells, Cisbio Bioassays) (P61073 whole entry): as above

Ki [1]: 0.97 nM | IC50 [2]: 4.4 nM | inhibition of SDF-1 induced migration of Ramos cells, EC50 (CXCR4 (human)): 2.1 nM
Substance: mouse anti-human CXCR4 monoclonal antibody (Clone 12G5, R&D system)
